According to WO2005095988A2:

Tests used:
[1] = target: Bacillus anthracis protective antigen (PA) (Bacillus anthracis) (UniProt P13423)
[2] = target: Bacillus anthracis protective antigen (PA) (Bacillus anthracis) (UniProt P13423); remark: listed apart in the source

Chain of UniProt P13423 (P13423 30-764 limits assumed): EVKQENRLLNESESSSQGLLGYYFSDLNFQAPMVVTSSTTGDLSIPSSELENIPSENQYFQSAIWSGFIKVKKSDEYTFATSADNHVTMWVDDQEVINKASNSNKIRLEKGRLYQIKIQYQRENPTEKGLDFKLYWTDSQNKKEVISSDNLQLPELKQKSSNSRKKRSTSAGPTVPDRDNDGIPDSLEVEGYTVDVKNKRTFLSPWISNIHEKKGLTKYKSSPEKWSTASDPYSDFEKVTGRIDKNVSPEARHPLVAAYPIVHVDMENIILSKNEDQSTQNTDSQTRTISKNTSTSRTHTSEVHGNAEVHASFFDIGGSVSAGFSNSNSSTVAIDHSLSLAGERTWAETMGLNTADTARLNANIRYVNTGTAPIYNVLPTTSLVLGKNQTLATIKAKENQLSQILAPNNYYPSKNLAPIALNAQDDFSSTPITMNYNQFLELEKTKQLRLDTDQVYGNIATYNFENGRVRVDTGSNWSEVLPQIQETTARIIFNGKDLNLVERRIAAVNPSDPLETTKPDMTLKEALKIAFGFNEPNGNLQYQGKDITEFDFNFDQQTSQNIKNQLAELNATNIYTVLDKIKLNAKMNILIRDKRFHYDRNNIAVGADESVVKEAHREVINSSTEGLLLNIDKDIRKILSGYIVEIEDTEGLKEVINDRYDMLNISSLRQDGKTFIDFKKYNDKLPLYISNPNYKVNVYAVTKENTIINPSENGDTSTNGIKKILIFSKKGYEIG

Substance | fold higher mean fluorescence intensity compared to controls [1] | mean fluorescence [2]
NlpA-[14B7 scFv], anchored on the E. coli inner membrane (APEx) | 9 fold | 30
NlpA-[M18 scFv], anchored on the E. coli inner membrane (APEx) | – | 250
